Measurements from article PMC5079630 (2016).
Values belong to the binder of their own block, whether it stands above or below them.

Key:
Test in all cases: AUC
[1] = target: STAT2 N domain (aminoterminal domain), recombinant, mEGFP-tagged (human)
[2] = target: STAT2 N domain LL81,82AA, recombinant (human)
[3] = target: T1, STAT1 N domain (aminoterminal domain), recombinant
T1 chain: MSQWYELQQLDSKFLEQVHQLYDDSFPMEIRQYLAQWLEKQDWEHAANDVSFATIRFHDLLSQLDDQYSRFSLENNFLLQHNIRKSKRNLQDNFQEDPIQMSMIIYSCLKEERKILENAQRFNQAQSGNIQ

Sequence of STAT2 N domain (aminoterminal domain), recombinant, mEGFP-tagged (human) (chain, as listed by the source): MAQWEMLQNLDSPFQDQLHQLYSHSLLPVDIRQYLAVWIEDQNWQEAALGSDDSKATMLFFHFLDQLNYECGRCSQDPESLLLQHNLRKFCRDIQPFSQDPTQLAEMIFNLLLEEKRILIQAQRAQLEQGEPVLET
Sequence of STAT2 N domain LL81,82AA, recombinant (human) (chain, as listed by the source): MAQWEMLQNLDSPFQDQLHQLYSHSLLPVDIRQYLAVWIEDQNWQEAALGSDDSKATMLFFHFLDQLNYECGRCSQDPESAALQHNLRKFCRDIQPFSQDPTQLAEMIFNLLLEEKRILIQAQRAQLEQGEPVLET

- Kd [1]: < 0.01 µM
B1: STAT1 N domain (aminoterminal domain), recombinant (domain or fragment)
chain: T1 chain
modifications: limits not printed (S1 Text/ref. 22); N domain taken up to the start of the conventional STAT1 core fragment (132-713); Strep-tag omitted limits not given; N domain taken up to the start of the core region (P52630 region from 138), homologous to STAT1 1-131; mEGFP and Strep-tag omitted

- Kd [2]: 5500 µM
B2: STAT1 N domain (aminoterminal domain), recombinant (domain or fragment)
chain: T1 chain
modifications: limits not printed (S1 Text/ref. 22); N domain taken up to the start of the conventional STAT1 core fragment (132-713); Strep-tag omitted limits not given; same convention as m2; tags omitted

- Kd [3]: 16.6 µM
B3: STAT1 N domain (aminoterminal domain), recombinant (domain or fragment)
chain: T1 chain
modifications: limits not printed (S1 Text/ref. 22); N domain taken up to the start of the conventional STAT1 core fragment (132-713); Strep-tag omitted limits not printed (S1 Text/ref. 22); N domain taken up to the start of the conventional STAT1 core fragment (132-713); Strep-tag omitted

- Kd [1]: 705 µM
B4: STAT2 N domain (aminoterminal domain), recombinant, mEGFP-tagged (domain or fragment)
chain: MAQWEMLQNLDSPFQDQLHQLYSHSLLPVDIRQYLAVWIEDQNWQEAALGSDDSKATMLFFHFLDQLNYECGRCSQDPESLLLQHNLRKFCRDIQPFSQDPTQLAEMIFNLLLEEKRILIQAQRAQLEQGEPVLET
modifications: limits not given; N domain taken up to the start of the core region (P52630 region from 138), homologous to STAT1 1-131; mEGFP and Strep-tag omitted limits not given; N domain taken up to the start of the core region (P52630 region from 138), homologous to STAT1 1-131; mEGFP and Strep-tag omitted
